From paper PMC2872155 come the findings set out here.

Data set [1] has as its system VP35 IID (Zaire ebolavirus). The data set can be described thus: NMR. To be noted: 5'ppp; not given in the material (Methods absent).
Data set [2] deals with VP35 IID (Zaire ebolavirus). Description: NMR competition. The conditions noted are these: 5'ppp; not given in the material (Methods absent).
In data set [3] the test system is VP35 IID (Zaire ebolavirus). Description: ITC. To be noted: not given in the material (Methods absent).

What is called Kd is the concentration at which binding is half-saturated. Read a low Kd as a tighter complex.

With IVT-8 bp dsRNA, the binding signal (relative HSQC peak intensity) in data set [1] came to 0.36; in data set [2] it was 0.42.
Substance 8 bp dsRNA gave a Kd in data set [3] of 500 nM.
